± gives the uncertainty stated by the source.

The labels stand for the following.
B1: Integrator complex subunit 12, residues 155 to 213; numbered along this chain, Q96CB8 (parent)
chain: AMEMGLACVVCRQMMVASGNQLVECQECHNLYHRDCHKPQVTDKEANDPRLVWYCARCT

In the data set the parent is B1. Briefly: abundance fitness (aPCA) (normalised: wild type 0, dead -1); higher = more abundant; growth selection in yeast, the domain comes from the species named. The conditions noted are these: Homo sapiens.
As for AMEMGLACVVCRQMMVASGNQLVECQECHNLYHRDGHKPQVTDKEANDPRLVWYCARCT [C36G], the abundance fitness was -0.606 ± 0.033. In the case of AMEMGLACVVCRQMMVASGNQLVECQECHNLYHRDQHKPQVTDKEANDPRLVWYCARCT [C36Q], the abundance fitness is -0.672 ± 0.077. With AMEMGLACVVCRQMMVASGNQLVECQECHNLYHRDIHKPQVTDKEANDPRLVWYCARCT [C36I] the figure was -0.691 ± 0.039. With AMEMGLACVVCRQMMVASGNQLVECQECHNLYHRDEHKPQVTDKEANDPRLVWYCARCT [C36E], the abundance fitness was -0.696 ± 0.066. As to AMEMGLACVVCRQMMVASGNQLVECQECHNLYHRDDHKPQVTDKEANDPRLVWYCARCT [C36D], the abundance fitness was -0.802 ± 0.051. As for AMEMGLACVVCRQMMVASGNQLVECQECHNLYHRDPHKPQVTDKEANDPRLVWYCARCT [C36P], the abundance fitness was -0.585 ± 0.058.

Turning to AMEMGLACVVCRQMMVASGNQLVECQECHNLYHRDKHKPQVTDKEANDPRLVWYCARCT [C36K], the abundance fitness is -0.79 ± 0.078. As to AMEMGLACVVCRQMMVASGNQLVECQECHNLYHRDAHKPQVTDKEANDPRLVWYCARCT [C36A], the abundance fitness was -0.671 ± 0.043. Take AMEMGLACVVCRQMMVASGNQLVECQECHNLYHRDMHKPQVTDKEANDPRLVWYCARCT [C36M]: the abundance fitness is -0.63 ± 0.064.

AMEMGLACVVCRQMMVASGNQLVECQECHNLYHRDNHKPQVTDKEANDPRLVWYCARCT [C36N]: the abundance fitness was -0.615 ± 0.044.

On to AMEMGLACVVCRQMMVASGNQLVECQECHNLYHRDLHKPQVTDKEANDPRLVWYCARCT [C36L], for which the abundance fitness was -0.763 ± 0.043. Turning to AMEMGLACVVCRQMMVASGNQLVECQECHNLYHRDFHKPQVTDKEANDPRLVWYCARCT [C36F], the abundance fitness is -0.775 ± 0.045. As to AMEMGLACVVCRQMMVASGNQLVECQECHNLYHRDHHKPQVTDKEANDPRLVWYCARCT [C36H], the abundance fitness is -0.516 ± 0.046.

For AMEMGLACVVCRQMMVASGNQLVECQECHNYYHRDCHKPQVTDKEANDPRLVWYCARCT [L31Y], the abundance fitness turned out to be 0.047 ± 0.038. In the case of AMEMGLACVVCRQMMVASGNQLVECQECHNRYHRDCHKPQVTDKEANDPRLVWYCARCT [L31R], the abundance fitness was determined as 0.091 ± 0.034. Take AMEMGLACVVCRQMMVASGNQLVECQECHNWYHRDCHKPQVTDKEANDPRLVWYCARCT [L31W]: the abundance fitness worked out at 0.101 ± 0.049. For AMEMGLACVVCRQMMVASGNQLVECQECHNQYHRDCHKPQVTDKEANDPRLVWYCARCT [L31Q], the abundance fitness is 0.084 ± 0.07. Regarding AMEMGLACVVCRQMMVASGNQLVECQECHNSYHRDCHKPQVTDKEANDPRLVWYCARCT [L31S], the abundance fitness was 0.046 ± 0.032. Turning to AMEMGLACVVCRQMMVASGNQLVECQECHNPYHRDCHKPQVTDKEANDPRLVWYCARCT [L31P], the abundance fitness is -0.164 ± 0.052. On to AMEMGLACVVCRQMMVASGNQLVECQECHNTYHRDCHKPQVTDKEANDPRLVWYCARCT [L31T], for which the abundance fitness came to 0.055 ± 0.039. With AMEMGLACVVCRQMMVASGNQLVECQECHNLFHRDCHKPQVTDKEANDPRLVWYCARCT [Y32F], the abundance fitness turned out to be 0.003 ± 0.035. For the variant AMEMGLACVVCRQMMVASGNQLVECQECHNLVHRDCHKPQVTDKEANDPRLVWYCARCT [Y32V], the abundance fitness is -0.159 ± 0.032. On to AMEMGLACVVCRQMMVASGNQLVECQECHNLGHRDCHKPQVTDKEANDPRLVWYCARCT [Y32G], for which the abundance fitness was -0.335 ± 0.035. Take AMEMGLACVVCRQMMVASGNQLVECQECHNLEHRDCHKPQVTDKEANDPRLVWYCARCT [Y32E]: the abundance fitness is -0.388 ± 0.068.

Take AMEMGLACVVCRQMMVASGNQLVECQECHNLCHRDCHKPQVTDKEANDPRLVWYCARCT [Y32C]: the abundance fitness was -0.207 ± 0.04. With AMEMGLACVVCRQMMVASGNQLVECQECHNLTHRDCHKPQVTDKEANDPRLVWYCARCT [Y32T] the figure was -0.263 ± 0.044; with AMEMGLACVVCRQMMVASGNQLVECQECHNLLHRDCHKPQVTDKEANDPRLVWYCARCT [Y32L], -0.152 ± 0.038.

For AMEMGLACVVCRQMMVASGNQLVECQECHNLRHRDCHKPQVTDKEANDPRLVWYCARCT [Y32R], the abundance fitness is -0.308 ± 0.038. Take AMEMGLACVVCRQMMVASGNQLVECQECHNLWHRDCHKPQVTDKEANDPRLVWYCARCT [Y32W]: the abundance fitness stood at 0.045 ± 0.058. As for AMEMGLACVVCRQMMVASGNQLVECQECHNLHHRDCHKPQVTDKEANDPRLVWYCARCT [Y32H], the abundance fitness is -0.254 ± 0.047. For the variant AMEMGLACVVCRQMMVASGNQLVECQECHNLSHRDCHKPQVTDKEANDPRLVWYCARCT [Y32S], the abundance fitness is -0.315 ± 0.033. Consider AMEMGLACVVCRQMMVASGNQLVECQECHNLAHRDCHKPQVTDKEANDPRLVWYCARCT [Y32A], for which the abundance fitness was -0.128 ± 0.039. Turning to AMEMGLACVVCRQMMVASGNQLVECQECHNLDHRDCHKPQVTDKEANDPRLVWYCARCT [Y32D], the abundance fitness was -0.525 ± 0.044. As to AMEMGLACVVCRQMMVASGNQLVECQECHNLQHRDCHKPQVTDKEANDPRLVWYCARCT [Y32Q], the abundance fitness was -0.3 ± 0.067. With AMEMGLACVVCRQMMVASGNQLVECQECHNLPHRDCHKPQVTDKEANDPRLVWYCARCT [Y32P] the figure was -0.611 ± 0.056. The value for AMEMGLACVVCRQMMVASGNQLVECQECHNLKHRDCHKPQVTDKEANDPRLVWYCARCT [Y32K] was -0.514 ± 0.066.

Take AMEMGLACVVCRQMMVASGNQLVECQECHNLMHRDCHKPQVTDKEANDPRLVWYCARCT [Y32M]: the abundance fitness is -0.143 ± 0.055.

Consider AMEMGLACVVCRQMMVASGNQLVECQECHNLYCRDCHKPQVTDKEANDPRLVWYCARCT [H33C], for which the abundance fitness turned out to be 0.013 ± 0.035. As to AMEMGLACVVCRQMMVASGNQLVECQECHNLYVRDCHKPQVTDKEANDPRLVWYCARCT [H33V], the abundance fitness is -0.767 ± 0.037. In the case of AMEMGLACVVCRQMMVASGNQLVECQECHNLYYRDCHKPQVTDKEANDPRLVWYCARCT [H33Y], the abundance fitness was -0.795 ± 0.047. The value for AMEMGLACVVCRQMMVASGNQLVECQECHNLYGRDCHKPQVTDKEANDPRLVWYCARCT [H33G] was -0.668 ± 0.037. For AMEMGLACVVCRQMMVASGNQLVECQECHNLYMRDCHKPQVTDKEANDPRLVWYCARCT [H33M], the abundance fitness is -0.882 ± 0.084.

Regarding AMEMGLACVVCRQMMVASGNQLVECQECHNLYNRDCHKPQVTDKEANDPRLVWYCARCT [H33N], the abundance fitness was -0.584 ± 0.04. Turning to AMEMGLACVVCRQMMVASGNQLVECQECHNLYLRDCHKPQVTDKEANDPRLVWYCARCT [H33L], the abundance fitness was -0.869 ± 0.044. As for AMEMGLACVVCRQMMVASGNQLVECQECHNLYKRDCHKPQVTDKEANDPRLVWYCARCT [H33K], the abundance fitness was -0.542 ± 0.068.

Values taken from the Human Domainome abundance scans (Beltran et al. 2025).
